Patent publication US20260201391
Where two headings read alike, the source gives them in different places.

Tested on: thrombin

| Substance | binding signal (fold higher Kd than TBV-08) (Kd of TBV-08 stated as 200-fold lower than Tasset-29) | binding signal (fold higher Kd than TBV-08) (Kd of TBV-08 stated as 300-fold lower than Bock-15) |
| --- | --- | --- |
| Tasset-29 | 200 |  |
| Bock-15 |  | 300 |
